Measured values published in patent US7514207B2, “Methods of screening for compounds that decrease phosphorylation of merlin and may be useful in cancer treatment” (Massachusetts Institute of Technology, priority 2001, dated 2009).
Each block holds one molecule with its values, some of them ahead of it.

Experiments:
merlin kinase = assay: In-vitro merlin kinase assay with kinase inhibitors; assay type: biochemical; conditions: for concentration range inhibiting the merlin kinase: inhibition of the activity of the merlin kinase
[1] = test system: phosphorylation of merlin induced by activated Rac or cdc42; assay: In-vivo merlin phosphorylation in co-transfected NIH3T3 cells (western blot); assay type: cell-based; conditions: NIH3T3 cells co-transfected with merlin, activated Rac or cdc42 and the PAK2 AID
Description: In the in-vitro kinase assays where full-length merlin was used, cells transfected with merlin expression vectors were extracted, and merlin was immunoprecipitated using a commercially available antibody SC-331 (Santa Cruz) and Protein A-agarose beads. In the in-vivo studies, cells were transfected with various expression vectors and harvested after 48 hours into SDS-boiling buffer (10 mM Tris pH 7.5, 50 mM NaF, and 1% SDS). Cells were scraped off the plates and boiled for 5′. Protein concentration was determined by the BCA method (Pierce) and resolved by 9% SDS-PAGE and western blot analysis.
The inhibitory fragment in PAK2 resides between residues 82-146 (equivalent to the 83-149 AID of PAK1). […] To further investigate the role of PAK2 in induction of merlin phosphorylation, the ability of the AID to inhibit this activity was assessed. NIH3T3 cells were co-transfected with expression vectors for merlin, activated Rac, or cdc42 and the PAK2 AID.

[2] = molecular target: T1, GST-merlin pseudo-substrate (residues 478-535 of merlin fused to glutathione-S-transferase), P35240
T1 chain: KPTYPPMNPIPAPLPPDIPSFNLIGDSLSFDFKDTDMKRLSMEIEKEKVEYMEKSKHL

[3] = molecular target: merlin expressed from an inducible allele in the RT4-D6P2T cell line

Molecule: COC(=O)[C@@]1(O)C[C@H]2O[C@]1(C)n1c3ccccc3c3c4c(c5c6ccccc6n2c5c31)C(=O)NC4 [K252a]
- concentration range inhibiting the merlin kinase (merlin kinase): mM range

- concentration range inhibiting the merlin kinase (merlin kinase): mM range
Molecule: CCCCCCOC(=O)[C@]1(O)C[C@@H]2O[C@@]1(C)n1c3ccccc3c3c4c(c5c6ccccc6n2c5c31)C(=O)NC4 [K-5720]

- concentration up to which no effect on the merlin kinase was seen (merlin kinase; no effect up to this concentration): > 1 mM
Molecule: NCCNS(=O)(=O)c1cccc2cnccc12 [H9]

B1: PAK2 AID: auto-inhibitory domain of PAK2, residues 82-146, expressed from pcDNA3; dominant negative fragment (protein)
chain: HTIHVGFDAVTGEFTGMPEQWARLLQTSNITKLEQKKNPQAVLDVLKFYDSNTVKQKYLSFTPPE
- decrease in the ratio of hyper-phosphorylated to hypo-phosphorylated merlin [1]: 3-4 fold

B2: PAK2 wild-type (transfected) (protein)
chain: MSDNGELEDKPPAPPVRMSSTIFSTGGKDPLSANHSLKPLPSVPEEKKPRHKIISIFSGTEKGSKKKEKERPEISPPSDFEHTIHVGFDAVTGEFTGMPEQWARLLQTSNITKLEQKKNPQAVLDVLKFYDSNTVKQKYLSFTPPEKDGFPSGTPALNAKGTEAPAVVTEEEDDDEETAPPVIAPRPDHTKSIYTRSVIDPVPAPVGDSHVDGAAKSLDKQKKKTKMTDEEIMEKLRTIVSIGDPKKKYTRYEKIGQGASGTVFTATDVALGQEVAIKQINLQKQPKKELIINEILVMKELKNPNIVNFLDSYLVGDELFVVMEYLAGGSLTDVVTETCMDEAQIAAVCRECLQALEFLHANQVIHRDIKSDNVLLGMEGSVKLTDFGFCAQITPEQSKRSTMVGTPYWMAPEVVTRKAYGPKVDIWSLGIMAIEMVEGEPPYLNENPLRALYLIATNGTPELQNPEKLSPIFRDFLNRCLEMDVEKRGSAKELLQHPFLKLAKPLSSLTPLIMAAKEAMKSNR
- phosphorylation of the pseudo-substrate in an in-vitro kinase assay [2]: Only extracts from cells transfected with PAK2 and PAK3 were able to effectively phosphorylate the pseudo-substrate

B3: endogenous PAK1 of RT4 cells (protein)
chain: SNNGLDVQDKPPAPPMRNTSTMIGAGSKDPGTLNHGSKPLPPNPEEKKKKDRFYRSILAGDKTNKKKEKERPEISLPSDFEHTIHVGFDAVTGEFTGMPEQWARLLQTSNITKSEQKKNPQAVLDVLEFYNSKKTSNSQKYMSFTDKSAEDYNSSNTLNVKTVSETPAVPPVSEDEDDDDDATPPPVIAPRPEHTKSVYTRSVIEPLPVTPTRDVATSPISPTENNTTPPDALTRNTEKQKKKPKMSDEEILEKLRSIVSVGDPKKKYTRFEKIGQGASGTVYTAMDVATGQEVAIKQMNLQQQPKKELIINEILVMRENKNPNIVNYLDSYLVGDELWVVMEYLAGGSLTDVVTETCMDEGQIAAVCRECLQALEFLHSNQVIHRDIKSDNILLGMDGSVKLTDFGFCAQITPEQSKRSTMVGTPYWMAPEVVTRKAYGPKVDIWSLGIMAIEMIEGEPPYLNENPLRALYLIATNGTPELQNPEKLSAIFRDFLNRCLEMDVEKRGSAKELLQHQFLKIAKPLSSLTPLIAAAKEATKNNH
- phosphorylation status (activation) of PAK1 by 2-dimensional protein analysis [3]: The basal levels of activated PAK1 were reduced under conditions of high merlin expression compared to conditions of low merlin expression

B4: PAK1 (transfected) (protein)
chain: MSNNGLDIQDKPPAPPMRNTSTMIGAGSKDAGTLNHGSKPLPPNPEEKKKKDRFYRSILPGDKTNKKKEKERPEISLPSDFEHTIHVGFDAVTGEFTGMPEQWARLLQTSNITKSEQKKNPQAVLDVLEFYNSKKTSNSQKYMSFTDKSAEDYNSSNALNVKAVSETPAVPPVSEDEDDDDDDATPPPVIAPRPEHTKSVYTRSVIEPLPVTPTRDVATSPISPTENNTTPPDALTRNTEKQKKKPKMSDEEILEKLRSIVSVGDPKKKYTRFEKIGQGASGTVYTAMDVATGQEVAIKQMNLQQQPKKELIINEILVMRENKNPNIVNYLDSYLVGDELWVVMEYLAGGSLTDVVTETCMDEGQIAAVCRECLQALEFLHSNQVIHRDIKSDNILLGMDGSVKLTDFGFCAQITPEQSKRSTMVGTPYWMAPEVVTRKAYGPKVDIWSLGIMAIEMIEGEPPYLNENPLRALYLIATNGTPELQNPEKLSAIFRDFLNRCLEMDVEKRGSAKELLQHQFLKIAKPLSSLTPLIAAAKEATKNNH
- phosphorylation of the pseudo-substrate in an in-vitro kinase assay [2]: Other kinases, which are known effectors of cdc42/Rac, including PAK1, LIM-kinase and JNK, did not induce phosphorylation of merlin in these assays

B5: PAK2 of NIH3T3 cell extracts (endogenous) (protein)
chain: SDNGELEDKPPAPPVRMSSTIFSTGGKDPLSANHSLKPLPSVPEEKKPRNKIISIFSGTEKGSKKKEKERPEISPPSDFEHTIHVGFDAVTGEFTGMPEQWARLLQTSNITKLEQKKNPQAVLDVLKFYDSNTVKQKYLSFTPPEKDGFPSGTPALNTKGSETSAVVTEEDDDDEDAAPPVIAPRPDHTKSIYTRSVIDPIPAPVGDSNVDSGAKSSDKQKKKAKMTDEEIMEKLRTIVSIGDPKKKYTRYEKIGQGASGTVFTATDVALGQEVAIKQINLQKQPKKELIINEILVMKELKNPNIVNFLDSYLVGDELFVVMEYLAGGSLTDVVTETCMDEAQIAAVCRECLQALEFLHANQVIHRDIKSDNVLLGMEGSVKLTDFGFCAQITPEQSKRSTMVGTPYWMAPEVVTRKAYGPKVDIWSLGIMAIEMVEGEPPYLNENPLRALYLIATNGTPELQNPEKLSPIFRDFLNRCLEMDVEKRGSAKELLQHPFLKLAKPLSSLTPLILAAKEAMKSNR
- kinase activity on the GST-merlin substrate after immunodepletion of PAK2 [2]: extracts immunodepleted for PAK2 (+PAK2 Ab) had a 2-3 fold reduction in kinase activity

B6: PAK3 (transfected) (protein)
chain: MSDGLDNEEKPPAPPLRMNSNNRDSSALNHSSKPLPMAPEEKNKKARLRSIFPGGGDKTNKKKEKERPEISLPSDFEHTIHVGFDAVTGEFTGIPEQWARLLQTSNITKLEQKKNPQAVLDVLKFYDSKETVNNQKYMSFTSGDKSAHGYIAAHPSSTKTASEPPLAPPVSEEEDEEEEEEEDENEPPPVIAPRPEHTKSIYTRSVVESIASPAVPNKEVTPPSAENANSSTLYRNTDRQRKKSKMTDEEILEKLRSIVSVGDPKKKYTRFEKIGQGASGTVYTALDIATGQEVAIKQMNLQQQPKKELIINEILVMRENKNPNIVNYLDSYLVGDELWVVMEYLAGGSLTDVVTETCMDEGQIAAVCRECLQALDFLHSNQVIHRDIKSDNILLGMDGSVKLTDFGFCAQITPEQSKRSTMVGTPYWMAPEVVTRKAYGPKVDIWSLGIMAIEMVEGEPPYLNENPLRALYLIATNGTPELQNPERLSAVFRDFLNRCLEMDVDRRGSAKELLQHPFLKLAKPLSSLTPLIIAAKEAIKNSSR
- phosphorylation of the pseudo-substrate in an in-vitro kinase assay [2]: Only extracts from cells transfected with PAK2 and PAK3 were able to effectively phosphorylate the pseudo-substrate
